The experiment has as its target CaV1.2 truncated at aa 1820, fused to YFP (CaV1.2^Δ1820-YFP) (UniProt P15381).

In turn, “Distal C-terminal domain of CaV1.2 fused to Renilla luciferase (DCtermD-RLuc) (domain or fragment)” registered a CDI fraction of CaV1.2^Δ1820 at 0 mV, without versus with DCtermD overexpressed of 0.03.

The values are drawn from publication PMC11067984.
